Values of other authors as cited in US12514872B2, “Polycationic polymers for use in treating and detecting cancer” (Duke University, priority 2015, dated 2026).

Tests used:
[1] = test system: RNA oligonucleotide coagulation-factor inhibitors (aptamers); conditions: previous work, WO2008/121354
[2] = test system: PC tumor cell lines; conditions: in vitro
[3] = test system: orthotopic xenograft pancreatic tumors

| Molecule | reversal of anticoagulant activity of aptamers [1] | cell invasion, migration and adhesion [2] | tumor metastasis [3] |
| --- | --- | --- | --- |
| protamine sulfate | reverse the anticoagulant activity |  |  |
| DNAse I: enzyme used in a cited PC study to treat tumor cells associated with extracellular DNA (protein, UniProt P24855 23-282, looked up) Deoxyribonuclease-1: LKIAAFNIQTFGETKMSNATLVSYIVQILSRYDIALVQEVRDSHLTAVGKLLDNLNQDAPDTYHYVVSEPLGRNSYKERYLFVYRPDQVSAVDSYYYDDGCEPCGNDTFNREPAIVRFFSRFTEVREFAIVPLHAAPGDAVAEIDALYDVYLDVQEKWGLEDVMLMGDFNAGCSYVRPSQWSSIRLWTSPTFQWLIPDSADTTATPTHCAYDRIVVAGMLLRGAVVPDSALPFNFQAAYGLSDQLAQAISDHYPVEVMLK |  | reduced cell invasion, migration, and adhesion | reduction in tumor metastasis |
